# ± gives the standard error. This sample holds only a part of the variants without activity.
# B1: glmS ribozyme (parent)
# chain: AUAAAAGCGCCAGAACUACAGAAAUGUAGUUGACGAGGAGGAGGUUUAUCGAAUUUUCGGCGGAUGCCUCCAAA
# Variants of: B1
# Assay: self-cleavage kobs at 2500 uM GlcN6P; higher = faster cleavage; RNA array
# Conditions: with glucosamine-6-phosphate
# Method in brief: (§1)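 Glucosamine-6-phosphate, from 40 μM to 10 mM in HEPES/KCl/Mg(OAc)2 buffer, was flowed over sequenced MiSeq chips carrying barcoded ribozyme variants transcribed in situ by E. coli RNA polymerase. A hybridised Cy3 probe tracked the variants at 37 °C as tiles were imaged over ~14 h. kobs, kcat and KM were obtained by fitting normalised per-tile medians to exponential decays and then applying weighted Michaelis–Menten fits across concentrations.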
row,Variant,self-cleavage kobs at 2500 uM GlcN6P [s⁻¹]
1,AUAAAAGCGCCAGUACUACAGAAAUGUAGUUGACGAGGAGGAGGUAUAUCGUAUUUUAGGCGGAUGCCUCCAAA,< 1e-05
2,AUAAAAGCGCCAGGACUACAGAAAUGUAGUUGACGAGGAGGAGGGUUAUCGAAUUUUCGGCGGAUGCCUCUAAA,0.0021 ± 0.0006
3,AUAAAAGCGCCAGACCUACAGAAAUGUAGACGACGAGGAGGAGGUUUUUCGAAUUUUCGGCGGAUGCCUCCAAA,7.36e-05 ± 3e-05
4,AUAAAAGCGCCAGACCUACAGAAAUGUAGUUAACGAGGAGGAGGUUUAUCGAAUUUUCGGCGGAUGCCACCAAA,0.000103 ± 3.2e-05
5,AUAAAAGCGCCAGUACUACAGAAAUGUAGUUGUCGAGGAGGAGGUUUAUCGACUUUUCGGCGUAUGCCUCCAAA,< 1e-05
6,AUAAAAGCGCCAGACCUACAGAAAUGUAGUUGACGAGGAGGGGGUUUAUCGAAUUAUCGUCGGAUGCCUCCAAA,< 1e-05
7,AUAAAAGCGCCAGGACUACAGAAAUGUAGUUGGCGUGGAGGUGGUAUAUCGAAUUUUCGGCGGAUGCCUCCAAA,< 1e-05
8,AUAAAAGCGCCAGGACUACAGAAAUGUAGUUGACGAGGAGAAGGUUUAUCGAAUUUUCGUCGGAUGCCUCCAAA,< 1e-05
9,AUAAAAGCGCCAGACCUACAGAAAUGUAGUUGACUAGGAGGAGGUUUAUCGAAUUUUCGGCGGAUGCCUGCAAA,< 1e-05
10,AUAAAAGCGCCAGUGCUACAGAAAUGUAGUUUACGAGGAGGAGGUUUAUCGAAUUUGCGGCGGAUGCCACCAAA,0.000285 ± 0.00012
11,AUAAAAGCGCCAGACCUACAGAAAUGUAGUAGACGAGGAGGAGGUUUAUCGAGUUUUCGGCGGAUGCCUCGAAA,0.000222 ± 4.5e-05
12,AUAAAAGCGCCAGUACUACAGAAAUGUAGUUGACGAGGAGGAGGGUUAUCGAAUUUUCGUCGGAUGCCUCCAAA,< 1e-05
13,AUAAAAGCGCCAGGACUACAGAAAUGUAGUUGACGUGGCGGAGGUUUAUCGAAUUUUCGGCGGAUGCCUCCAAA,< 1e-05
14,AUAAAAGCGCCAGGACUACAGAAAUGUAGUUGACGAGGAGGAGGUUUAUCGAAUUUUCGUCGGAUACCUCCAAA,< 1e-05
15,AUAAAAGCGCCAGGACUACAGAAAUGUAGUUGACGAGGAGGAGGAUUAUCGAAUUUUCGGCGGAUGCCACCAAA,0.000801 ± 0.00024
16,AUAAAAGCGCCAGUACUACAGAAAUGUAGUUGACGAGGAGGAGGGUUAUCGACUUUUCGGCGGACGCCUCCAAA,< 1e-05
17,AUAAAAGCGCCAGUACUACAGAAAUGUAGUUUACGAGGAGGAGCUUUAUCGAAUUUUCGGCUGAUGCCUCAAAA,< 1e-05
18,AUAAAAGCGCCAGACCUACAGAAAUGUAGUUGACGAGGAGGAGGUUUAUCGAAUUUUCGGCGGGUGCAUCCAAA,< 1e-05
19,AUAAAAGCGCCAGACCUACAGAAAUGUAGUUGACGCGGAGGAGGUUUUUCGAAUUUUCGGCGGAUGCCUCCAAA,< 1e-05
20,AUAAAAGCGCCAGCACUACAGAAAUGUAGUUGACGAGGAGGAGGUUUAUCGAAGUUUGGGCGGAUGCUUCCAAA,4.09e-05 ± 1.3e-05
21,AUAAAAGCGCCAGGACUACAGAAAUGUAAUUGACGAGGAGGAGAUUUAUCGAAUUUUCGGCGGAUGCCUCCAAA,6.19e-05 ± 2.1e-05
22,AUAAAAGCGCCAGACCUACAGAAAUGUAGUUGACGAGGAGGGGGUUUAUCGAAUUUUCGGCGGAUGUCUCCAAA,0.000389 ± 9.9e-05

row,Variant,self-cleavage kobs at 2500 uM GlcN6P [s⁻¹]
1,AUAAAAGCGCCAGUACUACAGAAAUGUAGUUGGCGAGGAGGAGGUUUAUCGGAUUUUCGGCGGAUGCUUGAAAA,0.000285 ± 9.7e-05
2,AUAAAAGCGCCAGUACUACAGAAAUGUAGUUGACGAGGAGGAGGUUUAUCUAAUUUUCGUCGGAUGCCUCCAAA,< 1e-05
3,AUAAAAGCGCCAGGACUACAGAAAUGUAGUUGACUAGGAGGAGGUUUAUCGAAUUUUCGGCGGAUGUCUCCAAA,< 1e-05
4,AUAAAAGCGCCAGUACUACAGAAAUGUAGUUGACGAGGAUGAGGUUUAUCGAAUUUUCGACGGAUGCCUGUAAA,< 1e-05
5,AUAAAAGCGCCAGACCUACAGAAAUGUAGUUGACGAGGAGGAGGUUUAGCGAAUUUUGGGCGGAUGCCUCCAAA,< 1e-05
6,AUAAAAGCGCCAGGACUACAGAAAUGUAGUUGACGAGGAGGGGAUUUAUCGAAUGUUCGGCGGAUGCCUCCAAA,0.000136 ± 4.1e-05
7,AUAAAAGCGCCAGUACUACAGAAAUGUAGUUCACGAGGAGGAGGUUAAUCGAAUUUUCGGCGGAUGCCUCCAAA,8.18e-05 ± 1.8e-05
8,AUAAAAGCGCCAGUACUACAGAAAUGUAGUUGACGAGGAGGAGGUUCAUCGAAUUUUCGGGGGAUGCCUCCAAA,< 1e-05
9,AUAAAAGCGCCAGUACUACAGAAAUGUAGUUGACGAGGAGGAGGUUUCUCGAAUUUUCGGCGGAUGCCACCAAA,< 1e-05
10,AUAAAAGCGCCAGUACUACAGAAAUGUAGUUGACGAGGAGGAGGUUUAUCGAACUUUCGGCGGAGGCCUCCAAA,0.000411 ± 0.00014
11,AUAAAAGCGCCAGGACUACAGAAAUGUAGAUGACGAGGAGGAGGUUUAUAGAAUUUUCGGCGGAUGCCUCCAAA,8.06e-05 ± 2.8e-05
12,AUAAAAGCGCCAGGACUACAGAAAUGUAGUUGACGAGGAGGAGGUUUAUCGAAUGUUCGGCGGAUUCCUCCAAA,0.00182 ± 0.00038
13,AUAAAAGCGCCAGACCUACAGAAAUGUAGUUGACGAGGAGGAGGUUUAUCGAAUUUUCGGCGGAUUGCUCCAAA,4.27e-05 ± 1.7e-05
14,AUAAAAGCGCCAGUACUACAGAAAUGUAGUUGACGAGGAGUAGGUUUAUCGAAAUUUCGGCGGAUGCCUCCAAA,0.000104 ± 3.2e-05
15,AUAAAAGCGCCAGUACUACAGAAAUGUAGUUGACGAGGAGGAGGGUAAUCGAACUUUCGGCUGAUGCCUCCAAA,< 1e-05
16,AUAAAAGCGCCAGUACUACAGAAAUGUAGUUGGCGAGGAUGAGGUUUAUCGAAUUAUCGGCGGAUGCCUCCAAA,< 1e-05
17,AUAAAAGCGCCAGACCUACAGAAAUGUAGUUGACGCGGAGGAGGUUUAUCGAAUUUUCAGCGGAAGCCUCCAAA,< 1e-05
18,AUAAAAGCGCCAGUACUACAGAAAUGUAUUUGACGAGGAGGAGGUUUAUCGAAUUUUCGGCGGAUGGCUCCAAA,6.46e-05 ± 2.8e-05
19,AUAAAAGCGCCAGGACUACAGAAAUGUAGUUGACGAGGAGAAGGUUUAUCGAAUUUUCGGCUGAUGCCUCCAAA,< 1e-05
20,AUAAAAGCGCCAGACGUACAGAAAUGUAGUAGACGAGGAGGAGGUUUAUCGAGUUUUAGGCGGAUGCCUCCAAA,4.06e-05 ± 1.5e-05
21,AUAAAAGCGCCAGUACUACAGAAAUGUAGUUGACCAGGAGGAGGUUUAUCGAAUUUUCGGCGGAGUCCGCCAAA,< 1e-05
22,AUAAAAGCGCCAGGAGUACAGAAAUGUAGGUGACGAGGAGGAGGUUUACCGAAAUUUCGGCGGAUGGUUCCAAA,< 1e-05

row,Variant,self-cleavage kobs at 2500 uM GlcN6P [s⁻¹]
1,AUAAAAGCGCCAGACCUACAGACAUGUAGUUGACGAGGAGGAGGUUUAUCGAAUUUUCGGCGGAUGCCUCCAAA,0.00398 ± 0.0014
2,AUAAAAGCGCCAGUACUACAGAAAUGUAGUUGACGAGGAGGAGGUUUAUCAAAUUUUGGUCGUAAGCCUCCAAA,< 1e-05
3,AUAAAAGCGCCAGUACUACAGAAAUGUAGCUGACGAGGAGGAGGUUUAUCGAAUUUUCGGCCGAUGCCGCCAAA,< 1e-05
4,AUAAAAGCGCCAGACCUACAGAAAUGUAGUUGACGAGGUGGAGGUUUAUGGAGUUUUCGGCGGAUGCCUCCAAA,< 1e-05
5,AUAAAAGCGCCAGUACUACAGAAAUGUAGUUGACGAGGACGAGGUUUAUCGAAUUUUCGGCGGAUCCCUCCAAA,9.83e-05 ± 2.2e-05
6,AUAAAAGCGCCAGACCUACAGAAAUGUAGUUGAGGAGGAGGAGGUUUAUCGAAUUUACGGCGGAUGCCUCCAAA,< 1e-05
7,AUAAAAGCGCCAGGUCUACAGAAAUGUAGUUGACGAGGAGGAGGUUUUUCGAAUUUUCGGCGGAUGCCUCCAAA,0.000128 ± 4.1e-05
8,AUAAAAGCGCCAGACCUACAGAAAUGUAGUUGACGAGGAGGAGGUUUAUCGAAUUUUCGGCGGAUUCCCCCAAA,4.52e-05 ± 1.5e-05
9,AUAAAAGCGCCAGUACUACAGAAAUGUAGUUCACGAGGAGGAGGUUUAUCGUAUUUUCGGCGGAUGCCUCCAAA,< 1e-05
10,AUAAAAGCGCCAGACCUACAGAAAUGUAGUUGCCGAGGAGGAGGUUUAUCGAAUUUUCGGUGGAUACCUCCAAA,< 1e-05
11,AUAAAAGCGCCAGGACUACAGAAAUGUAGUUGACGAGGAGGACGUUUAUCGAAUUUCCGGCGGAUGCCUCCAAA,< 1e-05
12,AUAAAAGCGCCAGUACUACAGAAAUGUAGUUGACGAGGAGGAGGUUUAUCCAAUUUUCGGCGGGUGCCUCCAAA,< 1e-05
13,AUAAAAGCGCCAGGACUACAGAAAUGUAGUUGACGAGGAGGAGGUUUAUCGAAUUGUCGGCGGAUGCCUCUAAA,0.0458 ± 0.019
14,AUAAAAGCGCCAGCACUACAGAAAUGUAGUUGACGAGGAGGAGGUUUAUCGAAUUCUCGGCGGAUGUCUCCAAA,< 1e-05
15,AUAAAAGCGCCAGUAUUACAGAAAUGUAGUUGACGAGGAGGAGGUUGAUCGAAUUUUUGACGGAUGCCGCCAAA,0.000102 ± 2.6e-05
16,AUAAAAGCGCCAGGUCUACAGAAAUGUAGUUGACGAGGAGGAGGUCUAUCGAAUUUUCGGCGGAUGCCUCCAAA,0.00169 ± 0.00048
17,AUAAAAGCGCCAGUACUACAGAAAUGUAUUUGACGAGGAGGAGGUUUAUGGAAUUUUCGGCGGAUGCUUCCAAA,0.000156 ± 3.8e-05
18,AUAAAAGCGCCAGUACUACAGAAAUGUAGUUGACGAGGAGGAGGUUUCUCGAAUUUUCGGCGGAUGCCUUCAAA,3.58e-05 ± 1.6e-05
19,AUAAAAGCGCCAGACCUACAGAAAUGUAGUUGACGAGGAGGAGGUUUAUCGAAUUUUCGGCGGCUGCUUCCAAA,< 1e-05
20,AUAAAAGCGCCAGUACUACAGAAAUGUAGUUGACGAGGAGGCGGUUUAUCGAAAUUUCGGCGGAUGCCUCCAAA,< 1e-05
21,AUAAAAGCGCCAGUACUACAGAAAUGUAGUUGAAGAGGAGGAGGUUUGUCGAAUUUUCGGCGGAUGCGUCAAAA,< 1e-05
22,AUAAAAGCGCCAGGACUACAGAAAUGUAGUUGACGAGGUGGAGGUUUAUCGAAUUUUCGGCGGAUGCCUCGAAA,0.00129 ± 0.00041

# Variants of: B1
# Assay: self-cleavage kobs at 10000 uM GlcN6P; higher = faster cleavage; RNA array
# Conditions: with glucosamine-6-phosphate
# Method in brief: as §1
row,Variant,self-cleavage kobs at 10000 uM GlcN6P [s⁻¹]
1,AUAAAAGCGCCAGCACUACAGAAAUGUAGUUGACGAGGAGGAGGUUUAUCGAAGUUUGGGCGGAUGCUUCCAAA,4.43e-05 ± 2e-05
2,AUAAAAGCGCCAGGACUACAGAAAUGUAGUUGACGAGGAGGAGGUUUAUCGAAUGUUCGGCGGAUUCCUCCAAA,0.00253 ± 0.00062
3,AUAAAAGCGCCAGACCUACAGAAAUGUAGUUGACGAGGAGGAGGUUUAUCGAAUUUUCGGCGGAUUGCUCCAAA,0.000165 ± 4.9e-05
4,AUAAAAGCGCCAGACCUACAGAAAUGUAGUUGACGCGGAGGAGGUUUAUCGAAUUUUCAGCGGAAGCCUCCAAA,< 1e-05
5,AUAAAAGCGCCAGGAGUACAGAAAUGUAGGUGACGAGGAGGAGGUUUACCGAAAUUUCGGCGGAUGGUUCCAAA,< 1e-05
6,AUAAAAGCGCCAGACCUACAGACAUGUAGUUGACGAGGAGGAGGUUUAUCGAAUUUUCGGCGGAUGCCUCCAAA,0.00556 ± 0.0014
7,AUAAAAGCGCCAGUACUACAGAAAUGUAGUUGACGAGGACGAGGUUUAUCGAAUUUUCGGCGGAUCCCUCCAAA,0.00012 ± 2.4e-05
8,AUAAAAGCGCCAGUACUACAGAAAUGUAGUUGAAGAGGAGGAGGUUUGUCGAAUUUUCGGCGGAUGCGUCAAAA,0.000226 ± 7.7e-05
